Measurements published in the supplement of paper PMC9170038.

Test system: MS2 coat protein
Assay: apparent KD of MS2 coat protein; designed switch direction (-1 OFF switch, 1 ON switch): -1; higher = weaker reporter binding
How it was run: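 Transcription of designed RNA switches on Illumina chips was done by stalled E. coli RNA polymerase. SNAP-549-labelled MS2 coat protein was then titrated in doubling steps from 0.7 or 1.5 nM to 3 µM, with steps of 0.8–1.5 h at the lowest and 10–20 min at the highest concentration. The per-design median over clusters of curve-fitted normalised fluorescence is reported as apparent KD.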

[1] = input ligand: microRNA oligo, concentration not stated

For “AUAAAGAGGCUAGGAUAUACAUCGGUGCGAAAAGACGUAAUCCUUUGAACAUGAGGAUCACCCAUGUAGAAGGAGCAGACGGAA [Quriored] (Eterna round: R96, puzzle: Exclusion NG 2)”, the “apparent KD of MS2 coat protein” value (input ligand: FMN 200 uM) was 44.5 nM, the “apparent KD of MS2 coat protein” value [1] was 11.7 nM and the “apparent KD of MS2 coat protein” value (input ligand: none) was 17.4 nM.

“CGUAGCAAAGUGAGGAUAUCUAGAGCUUCGGCUCUAGAGAAGGCACAUGAGGAUCACCCAUGUGAUUAGCUACG [BmEx4/9-A1] (Eterna round: R97, puzzle: Brourd's mod of Exclusion 4)” was tested, and the “apparent KD of MS2 coat protein” value (input ligand: FMN 200 uM) was 152 nM and the “apparent KD of MS2 coat protein” value (input ligand: none) was 29.8 nM.

For “AUCAGCUCGUCAGGAUAUACAUCACUGCUUCGGCAGUGUAUUAAGAUCACAUGAGGAUCACCCAUGUAGAAGGGACGAGCUGAU [ENG2/2-B3] (Eterna round: R96, puzzle: Exclusion NG 2)”, the “apparent KD of MS2 coat protein” value (input ligand: FMN 200 uM) was 342 nM, the “apparent KD of MS2 coat protein” value [1] was 18.2 nM and the “apparent KD of MS2 coat protein” value (input ligand: none) was 25.3 nM.

With “GUAGGGUCAGGAUAUACGCAGACGGUUUCGUCGGGUUAUCUACAUGAGGAUCACCCAUGUAGAAGGGAUCAUAC [Eternabot (L1) Solution 53] (Eterna round: R97, puzzle: Exclusion 2)” the “apparent KD of MS2 coat protein” value (input ligand: FMN 200 uM) was 53.4 nM and the “apparent KD of MS2 coat protein” value (input ligand: none) was 15.8 nM.

For “AAUUAAACAAGCAGAUCCCACAUGAGGAUCACCCAUGUGCUCGUCUUAUAAGGUACUGUGACGAUAGUCACGGUACC [Mat - Sensor, turn-off var - Eli Mod - D65] (Eterna round: R97, puzzle: Sensor, turn-off variant 1)”, the “apparent KD of MS2 coat protein” value (input ligand: FMN 200 uM) was 44.6 nM and the “apparent KD of MS2 coat protein” value (input ligand: none) was 42.7 nM.

For “ACAUGAGGAUCACCCAUGUGCACGUAAUGGCUCAUGUAGAGUGAGGAUAUGUGAGACGAACGAGAACAGAAGGCACAAGACAGG [Deportation 8 - Jieux - Exclusion NG 3] (Eterna round: R96, puzzle: Exclusion NG 3)”, the “apparent KD of MS2 coat protein” value (input ligand: FMN 200 uM) was 106 nM, the “apparent KD of MS2 coat protein” value [1] was 92.8 nM and the “apparent KD of MS2 coat protein” value (input ligand: none) was 116 nM.

With “GAUCUGUGAGGAUAUUUAUCGUAGUGCGUGUAGCCUGCGCCGGAGAAGGCACAUGAGGAUCACCCAUGUUCUAA [Eternabot (L1) Solution 45] (Eterna round: R97, puzzle: Exclusion 4)” the “apparent KD of MS2 coat protein” value (input ligand: FMN 200 uM) was 57.2 nM and the “apparent KD of MS2 coat protein” value (input ligand: none) was 51.8 nM.

For “AUUGUUUUAGGAUAUACAUGAGGAUCACCCAUGUGUGCGAUGCGGAUCGGGAAAGCCUGUAGAAGGAAGACAUG [Eternabot (L1) Solution 74] (Eterna round: R97, puzzle: Exclusion 3)”, the “apparent KD of MS2 coat protein” value (input ligand: FMN 200 uM) was 33.4 nM and the “apparent KD of MS2 coat protein” value (input ligand: none) was 30.8 nM.

With “AUAUAUAUAGGAUAUACAUGAGGAUCACCCAUGUAAAGUAGCUUGCGUACAGGCAGAUGUAGAAGGAUAUAUAU [Mod of JL 15 - Jieux - Exclusion 3] (Eterna round: R97, puzzle: Exclusion 3)” the “apparent KD of MS2 coat protein” value (input ligand: FMN 200 uM) was 29.2 nM and the “apparent KD of MS2 coat protein” value (input ligand: none) was 33.1 nM.

With “UUAACAUGCUGGUGAUCAUACAUGAGGAUCACCCAUGUAACAAGCUUUUUGUUCGUCUUAUAAGAUUACUAGUAUGU [Stov1/10-B1] (Eterna round: R97, puzzle: Sensor, turn-off variant 1)” the “apparent KD of MS2 coat protein” value (input ligand: FMN 200 uM) was 39.4 nM and the “apparent KD of MS2 coat protein” value (input ligand: none) was 59.4 nM.

For “AAAUUGGUAGAGGAUAUCGGACAGGAUUUACUGCGAGAAGGCUGCACAUGAGGAUCACCCAUGUUUUGUUGCGA [EX6 #34] (Eterna round: R97, puzzle: Exclusion 6)”, the “apparent KD of MS2 coat protein” value (input ligand: FMN 200 uM) was 23.9 nM and the “apparent KD of MS2 coat protein” value (input ligand: none) was 25.7 nM.

In the case of “CUUAAGUCAGGAUAUCAGGAGCAAGCUUAACGGGCACUCGCUGAGAAGGGACAUGAGGAUCACCCAUGUGCUCG [Eternabot (L2) Solution 17] (Eterna round: R97, puzzle: Exclusion 4)”, the “apparent KD of MS2 coat protein” value (input ligand: FMN 200 uM) was 52.3 nM and the “apparent KD of MS2 coat protein” value (input ligand: none) was 24.7 nM.

“CGGUGCUCGUGGAAACAUGAGGAUCACCCAUGUUGAGUUAGCGAGGAUAUCGGUAACACAUGUCACGAGAAGGCGCGAACCAGA [Ex NG3 #32] (Eterna round: R96, puzzle: Exclusion NG 3)” was tested, and the “apparent KD of MS2 coat protein” value (input ligand: FMN 200 uM) was 18.7 nM, the “apparent KD of MS2 coat protein” value [1] was 9.96 nM and the “apparent KD of MS2 coat protein” value (input ligand: none) was 14.9 nM.
